Reference: patent US20240108766A1 (Bayer, published 2024)
Changes are numbered by the printed parent chain.

T1: human LRRC15 expressed on cells (human, UniProt Q8TF66 22-581)
T1 construct: whole, on cells; On HEK293 cells transfected with LRRC15/ZsGreen1 (Retrogenix), on HT29 cells transfected with human LRRC15, and endogenous on Saos-2; also called LRRC15/ZsGreen1 transfected HEK293 cells; HT29-LRRC15
T1 sequence (looked up): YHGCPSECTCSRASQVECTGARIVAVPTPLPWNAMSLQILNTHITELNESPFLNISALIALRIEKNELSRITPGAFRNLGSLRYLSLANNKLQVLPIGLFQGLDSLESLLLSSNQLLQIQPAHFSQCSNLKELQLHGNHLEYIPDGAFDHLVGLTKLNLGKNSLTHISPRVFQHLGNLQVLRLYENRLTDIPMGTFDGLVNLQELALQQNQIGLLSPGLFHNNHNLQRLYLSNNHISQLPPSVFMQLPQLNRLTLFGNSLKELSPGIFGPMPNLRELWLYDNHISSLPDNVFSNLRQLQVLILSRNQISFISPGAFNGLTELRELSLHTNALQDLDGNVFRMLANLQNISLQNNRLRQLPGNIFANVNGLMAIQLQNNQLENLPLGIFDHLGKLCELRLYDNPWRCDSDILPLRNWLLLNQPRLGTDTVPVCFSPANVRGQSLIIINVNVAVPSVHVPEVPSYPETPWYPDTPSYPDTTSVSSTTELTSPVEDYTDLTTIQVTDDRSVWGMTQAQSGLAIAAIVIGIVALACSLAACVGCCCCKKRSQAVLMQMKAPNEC

T2: human LRRC15 extracellular domain with C-terminal His tag (human, UniProt Q8TF66 22-538)
T2 construct: Recombinant, made in HEK293; the entry holds the extracellular domain and the His tag; SPR analyte; also called TPP-1545; hLRRC15 CT-His
T2 sequence: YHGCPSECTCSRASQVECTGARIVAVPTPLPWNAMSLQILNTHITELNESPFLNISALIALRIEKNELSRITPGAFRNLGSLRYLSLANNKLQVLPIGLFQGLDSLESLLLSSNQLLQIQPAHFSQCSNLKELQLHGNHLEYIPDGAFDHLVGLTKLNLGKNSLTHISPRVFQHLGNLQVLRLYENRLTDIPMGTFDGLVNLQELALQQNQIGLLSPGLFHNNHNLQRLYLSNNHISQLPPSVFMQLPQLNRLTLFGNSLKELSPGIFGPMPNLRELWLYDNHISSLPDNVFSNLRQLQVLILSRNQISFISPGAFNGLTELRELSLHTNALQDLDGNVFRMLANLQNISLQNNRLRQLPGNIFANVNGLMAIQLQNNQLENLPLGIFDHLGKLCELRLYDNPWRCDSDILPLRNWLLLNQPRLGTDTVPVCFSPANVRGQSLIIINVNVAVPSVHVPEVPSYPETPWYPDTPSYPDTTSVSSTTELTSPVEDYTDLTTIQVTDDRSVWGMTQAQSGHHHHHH

B1: TPP-12942 (antibody, human IgG1, kappa, V domains shown)
VH: EVQLVQSGAEVKKPGASVKVSCKASGYKFSSYWIEWVKQAPGQGLEWIGEILPGSDTTNYNEKFKDRATFTSDTSINTAYMELSRLRSDDTAVYYCARDRGNYRAWFGYWGQGTLVTVSS
VL: DIQMTQSPSSLSASVGDRVTITCRASQDISNYLNWYQQKPGGAVKFLIYYTSRLHSGVPSRFSGSGSGTDYTLTISSLQPEDFATYFCQQGEALPWTFGGGTKVEIKR
notes: Prior art humanized IgG1 kappa antibody, used as comparator; also called huM25; huM25-hIgG1Kappa
B2: TPP-17421 (antibody, human IgG1, kappa, V domains shown)
VH: B1 VH with T57W, G108Q
VL: B1 VL with D28S, N31S, V44P, T51A, R53S, H55Q, F87Y, E92L, A93E
notes: also called 438H-M306-C11-hIgG1Kappa
B3: TPP-17078 (antibody, human IgG1, kappa, V domains shown)
VH: B1 VH
VL: B1 VL with D28S, N31S, V44P, T51A, R53S, H55Q, F87Y, E92F, A93S
notes: also called 438H-M308-H05-hIgGkappa
B4: TPP-14389 (antibody, human IgG1, kappa, V domains shown)
VH: EVQLLESGGGLVQPGGSLRLSCAASGFTFSGYMMSWVRQAPGKGLEWVSGIYPSPGYTYYADSVKGRFTISRDNSKNTLYLQMNSLRAEDTAVYYCAREKASDLFGSYSEALDYWGQGTLVTVSS
VL: DIQMTQSPDSLSASVGDRVTITCRASQDVGSWLAWYQQKPGKAPKLLIFAASSLESGIPSRFSGSGSGTDFTLTISSLQPEDFATYYCQQANGFPLTFGGGTKVEIKR
notes: also called 13612-rec02-hIgG1Kappa

Molecular target: T1, human LRRC15 expressed on cells
Experiment: flow cytometry, transfected HEK293, 12.5 µg/ml

Row | Median Fluorescence AF647 | Binder
1 | 726000 | B1
2 | 736000 | B2
3 | 707000 | B3

Molecular target: T2, human LRRC15 extracellular domain with …
Experiment: calculated from SPR kd, 10°C
Experimental: (§1) To assess if anti-LRRC-15 antibodies show a difference in binding at different temperatures, binding assays were conducted using surface plasmon resonance (SPR). Binding assays were performed on a Biacore T200 instrument at temperatures of 10° C., 20° C., 25° C. and 37° C. with assay buffer HBS EP+, 1 mg/ml BSA (bovine serum albumine), 300 mM NaCl, 0.05% NaN₃. Antibodies were captured via anti-human Fc IgGs covalently amine coupled to a CM5 sensor chip and human LRRC15 was used as an analyte in a concentration series from 1.56-200 nM in multi cycle kinetics mode. Pre-experiments were conducted to have an equal capture level at each temperature. Obtained sensorgrams were fitted to a 1:1 Langmuir binding model to derive kinetic data.

Row | Complex Half Life | Binder
4 | 1.6 h | B4
5 | 0.963 h | B1
6 | 9.63 h | B2
7 | 14.8 h | B3

Molecular target: T2, human LRRC15 extracellular domain with …
Experiment: SPR (Example 6), overview table, repeats Table 9; head prints [M^-1]
Experimental: To assess the binding kinetics and affinity of anti-LRRC15 antibodies as well as their species cross-reactivity profile, binding assays were conducted using surface plasmon resonance (SPR). Binding assays were performed on a Biacore T200 instrument at 25° C. using assay buffer HBS EP+, 1 mg/ml BSA, 300 mM NaCl, 0.05% NaN3. Antibodies were captured via anti-human Fc IgGs covalently amine coupled to a CM5 sensor chip and human, mouse and cynomolgus LRRC15 were used as analytes in a concentration series from 1.56-200 nM in multi cycle kinetics mode. […] Obtained sensorgrams were fitted to a 1:1 Langmuir binding model to derive kinetic data.

Row | Kd | Binder
8 | 5.9 nM | B4
9 | 25 nM | B1
10 | 0.96 nM | B2
11 | 1.7 nM | B3

Molecular target: T1, human LRRC15 expressed on cells
Experiment: flow cytometry, transfected HEK293, 0.5 µg/ml

Row | Median Fluorescence AF647 | Binder
12 | 524000 | B1
13 | 391000 | B2
14 | 527000 | B3

Molecular target: T1, human LRRC15 expressed on cells
Experiment: flow cytometry, transfected HEK293, 0.004 µg/ml

Row | Median Fluorescence AF647 | Binder
15 | 19800 | B1
16 | 13100 | B2
17 | 27600 | B3

Molecular target: T1, human LRRC15 expressed on cells
Experiment: flow cytometry, transfected HEK293, 62.5 µg/ml

Row | Median Fluorescence AF647 | Binder
18 | 620000 | B1
19 | 650000 | B2
20 | 621000 | B3

Molecular target: T2, human LRRC15 extracellular domain with …
Experiment: SPR at 10-37°C (Example 3)
Experimental: as §1

Row | Temperature dependent loss in binding affinity | Binder
21 | 108 fold | B4
22 | 13.8 fold | B1
23 | 5.2 fold | B2
24 | 30.9 fold | B3

Molecular target: T1, human LRRC15 expressed on cells
Experiment: flow cytometry, transfected HEK293, 0.02 µg/ml

Row | Median Fluorescence AF647 | Binder
25 | 63400 | B1
26 | 35200 | B2
27 | 83700 | B3
